Experimental data taken from US10450368 (DUKE UNIVERSITY, dated 2019).
Where two headings read alike, the source gives them in different places.

How the values were obtained:
[1] = molecular target: T1, Histones; test: AtheNA, Ab 12.5 ug/ml
T1 construct: Mixture of proteins
From the text: (§1) AtheNA Multi-Lyte ANA Plus Test System is one such assay. This is luminex-based assay, which is also used to screen patient sera.

[2] = molecular target: T2, SSB (UniProt P05455 1-408); test: AtheNA, Ab 12.5 ug/ml
T2 sequence: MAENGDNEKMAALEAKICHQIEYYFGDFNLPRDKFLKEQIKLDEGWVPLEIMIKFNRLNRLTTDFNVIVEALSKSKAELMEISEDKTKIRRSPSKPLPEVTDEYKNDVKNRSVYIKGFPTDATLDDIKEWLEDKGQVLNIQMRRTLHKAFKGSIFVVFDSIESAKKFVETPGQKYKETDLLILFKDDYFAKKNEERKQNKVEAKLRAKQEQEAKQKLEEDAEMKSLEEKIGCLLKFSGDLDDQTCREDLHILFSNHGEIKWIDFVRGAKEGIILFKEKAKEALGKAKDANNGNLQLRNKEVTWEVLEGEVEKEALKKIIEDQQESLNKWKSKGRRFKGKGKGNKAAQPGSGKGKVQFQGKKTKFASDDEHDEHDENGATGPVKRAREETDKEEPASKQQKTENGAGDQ
From the text: as §1

[3] = molecular target: T3, SSA; test: AtheNA, Ab 12.5 ug/ml
T3 construct: also called SSA (Ro)
From the text: as §1

[4] = molecular target: T4, Sm (Smith antigen); test: AtheNA, Ab 12.5 ug/ml
T4 construct: Protein complex
From the text: as §1

[5] = molecular target: T5, RNP (ribonucleoprotein); test: AtheNA, Ab 12.5 ug/ml
T5 construct: Protein-RNA complex
From the text: as §1

[6] = molecular target: T6, Scl-70 (UniProt P11387 1-765); test: AtheNA, Ab 12.5 ug/ml
T6 sequence: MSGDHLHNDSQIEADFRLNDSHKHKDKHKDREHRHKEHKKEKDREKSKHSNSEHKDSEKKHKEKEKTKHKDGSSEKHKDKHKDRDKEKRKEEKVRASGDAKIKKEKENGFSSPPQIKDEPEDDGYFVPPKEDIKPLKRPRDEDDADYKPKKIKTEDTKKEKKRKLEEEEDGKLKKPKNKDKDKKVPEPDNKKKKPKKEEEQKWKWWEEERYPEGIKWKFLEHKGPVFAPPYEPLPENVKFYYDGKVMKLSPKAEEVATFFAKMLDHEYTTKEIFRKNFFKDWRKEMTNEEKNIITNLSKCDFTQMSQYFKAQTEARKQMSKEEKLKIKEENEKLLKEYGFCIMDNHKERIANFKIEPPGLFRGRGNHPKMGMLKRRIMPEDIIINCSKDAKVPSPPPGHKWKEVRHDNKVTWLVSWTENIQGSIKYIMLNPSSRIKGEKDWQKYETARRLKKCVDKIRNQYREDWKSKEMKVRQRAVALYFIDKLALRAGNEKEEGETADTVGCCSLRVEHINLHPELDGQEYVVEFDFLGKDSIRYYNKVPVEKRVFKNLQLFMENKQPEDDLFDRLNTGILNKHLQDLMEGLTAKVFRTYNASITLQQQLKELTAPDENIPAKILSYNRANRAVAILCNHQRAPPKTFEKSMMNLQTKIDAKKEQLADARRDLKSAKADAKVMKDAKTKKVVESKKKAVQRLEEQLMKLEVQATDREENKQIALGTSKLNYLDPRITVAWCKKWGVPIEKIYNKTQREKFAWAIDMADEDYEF
From the text: as §1

[7] = molecular target: CH505 TF loop D mutant M8 Env (pseudovirus) (HIV-1); test: cell-based or functional assay
[8] = molecular target: T1, Histones; test: AtheNA, Ab 12.5 ug/ml; remark: listed apart in the source
[9] = molecular target: T2, SSB; test: AtheNA, Ab 12.5 ug/ml; remark: listed apart in the source
[10] = molecular target: T7, Jo-1 (UniProt P12081 1-509); test: AtheNA, Ab 12.5 ug/ml
T7 sequence: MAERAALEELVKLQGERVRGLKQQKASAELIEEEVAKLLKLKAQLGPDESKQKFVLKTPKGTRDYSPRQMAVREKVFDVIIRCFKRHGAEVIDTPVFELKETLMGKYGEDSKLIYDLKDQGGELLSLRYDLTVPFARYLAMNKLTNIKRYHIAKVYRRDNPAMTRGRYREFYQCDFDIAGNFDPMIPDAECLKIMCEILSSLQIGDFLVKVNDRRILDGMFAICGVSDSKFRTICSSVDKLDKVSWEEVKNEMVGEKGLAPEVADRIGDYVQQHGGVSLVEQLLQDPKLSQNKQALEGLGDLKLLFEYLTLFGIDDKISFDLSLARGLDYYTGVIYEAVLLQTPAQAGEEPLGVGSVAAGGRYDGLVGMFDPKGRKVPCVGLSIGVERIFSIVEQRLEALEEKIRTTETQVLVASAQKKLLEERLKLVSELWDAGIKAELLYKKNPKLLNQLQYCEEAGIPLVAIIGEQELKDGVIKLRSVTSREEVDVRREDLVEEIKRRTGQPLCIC

[11] = molecular target: T8, Centromere B (UniProt P07199 1-599); test: AtheNA, Ab 12.5 ug/ml
T8 construct: also called Cent B
T8 sequence: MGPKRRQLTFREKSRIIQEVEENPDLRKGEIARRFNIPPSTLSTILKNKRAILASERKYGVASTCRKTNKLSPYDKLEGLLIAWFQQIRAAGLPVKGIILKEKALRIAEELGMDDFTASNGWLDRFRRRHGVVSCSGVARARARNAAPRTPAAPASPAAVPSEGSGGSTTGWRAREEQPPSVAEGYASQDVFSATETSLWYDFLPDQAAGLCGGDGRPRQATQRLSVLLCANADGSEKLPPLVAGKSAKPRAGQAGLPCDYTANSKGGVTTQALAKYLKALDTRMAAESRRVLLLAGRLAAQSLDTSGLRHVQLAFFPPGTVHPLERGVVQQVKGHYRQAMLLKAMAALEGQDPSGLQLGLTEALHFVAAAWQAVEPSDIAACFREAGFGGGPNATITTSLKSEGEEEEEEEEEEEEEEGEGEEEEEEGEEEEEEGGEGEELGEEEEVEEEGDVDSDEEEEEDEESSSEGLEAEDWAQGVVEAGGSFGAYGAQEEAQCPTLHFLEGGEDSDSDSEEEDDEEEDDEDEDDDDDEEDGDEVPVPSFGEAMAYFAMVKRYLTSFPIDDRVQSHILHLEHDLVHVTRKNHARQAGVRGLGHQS

[12] = molecular target: T3, SSA; test: AtheNA, Ab 12.5 ug/ml; remark: listed apart in the source
[13] = molecular target: T4, Sm (Smith antigen); test: AtheNA, Ab 12.5 ug/ml; remark: listed apart in the source
[14] = molecular target: T6, Scl-70; test: AtheNA, Ab 12.5 ug/ml; remark: listed apart in the source
[15] = molecular target: T3, SSA; test: AtheNA, Ab 25 ug/ml

B1: CH493 (antibody, V domains shown)
VH: QVRLLQYGGGVKRPGASMTISCVASGYNFNDYYIHWVRQAPGQGLELMGWIDPSGGRTDYAGAFGDRVSMYRDKSMNTLYMDLRSLRSGDTAMYYCVRNVGTAGSLLHYDHWGLGVMVTVSS
VL: EIVLTQSPATLSVSPGERVTLSCRASQSVRNNLAWYRQKRGQAPRLLIYGASTRATGIPARFSGSGSGTEFTLTISSMQSEDFAVYYCQQYNNWWTFGQGTKVEIK
notes: also called CH235.9; DH493
- AtheNA signal [1]: 200
- AtheNA signal [2]: 22
- AtheNA signal [3]: 54
- AtheNA signal [4]: 42
- AtheNA signal [5]: 49
- AtheNA signal [6]: 26
- neutralization IC50, TZM-bl pseudovirus assay [7]: 0.66 µg/mL

B2: CH557 (antibody, V domains shown)
VH: QVRLAQYGGGVKRLGATMTLSCVASGYTFNDYYIHWVRQAPGQGFELLGYIDPANGRPDYAGALRERLSFYRDKSMETLYMDLRSLRYDDTAMYYCVRNVGTAGSLLHYDHWGSGSPVIVSS
VL: EIVLTQSPATLSASPGERVTLTCRASRSVRNNVAWYQHKGGQSPRLLIYDASTRAAGVPARFSGSASGTEFTLAISNLESEDFTVYFCLQYNNWWTFGQGTRVDIK
notes: also called CH235.12; CH557_4A/293i
- AtheNA signal [8]: 6 relative luminescence units
- AtheNA signal [9]: 9 relative luminescence units
- AtheNA signal [10]: 5 relative luminescence units
- AtheNA signal [11]: 16 relative luminescence units
- AtheNA signal [12]: 3 relative luminescence units
- AtheNA signal [13]: 6 relative luminescence units
- AtheNA signal [14]: 3 relative luminescence units
- AtheNA signal [15]: 4 relative luminescence units
